Reference: patent US12698507B2, “Methods and compositions for conferring and/or enhancing herbicide tolerance using protoporphyrinogen IX oxidase of various cyanobacteria or variant thereof” (FarmHannong Co., Ltd., priority 2019, dated 2026)
Where a chain is given by its changes, count along the chain named. Numbers in names are those of the source.

B1: CyPPO19 L327T + F360I: variant of CyPPO19 PPO protein (SEQ ID NO: 1) (protein)
chain: MSEVDVAIVGGGLSGLSLAWRLQQSAPQYSVVLLEASDRLGGNITTQTAEGFVWELGPNSFAPTPALLQLIAEVGLQSELIRGDRHLPRYIYWRGQLYPLQPTRPLALATSNLLSPWGKVRAALGALGFVPPYLGSGDESVNSFFRRHLGQEVAERLVAPFVSGVYAGDPQQLSAAAAFRRIAQLEKLGGGLIAGALHLRRQQAPKPKPPTSVQMRPGELGSFKEGLAALPRAIAQQLKAPIHLQTPVQEITPDPKGGYLLRSGEQTWRARSVVLATPAYQTAELVAPFQPAIARVLATIPYPTVACVVLAYPAGLGRSVRPGFGVTIPRSQGIRTLGTIWSSCLFPQRTPAGWQVFTSIIGGATDPDLASLSEEAIVQQVQQDLNRLLDLPAAKARLLGMKVWRRAIPQYMVGYPEQWQQVTHALSQTPGLFLCSNYAEGVALGDRVEHGNRTAAAVAAYLSGGQP
modifications: Synthetic_PPO of Thermosynechococcus elongatus PKUAC-SCTE542 (comprising GenBank No. CP032152.1)
B2: CyPPO19 I408R + F360M: variant of CyPPO19 PPO protein (SEQ ID NO: 1) (protein)
chain: B1 chain with T327L, I360M, I408R
modifications: Synthetic_PPO of Thermosynechococcus elongatus PKUAC-SCTE542 (comprising GenBank No. CP032152.1)
B3: CyPPO19 L327T + F360L: variant of CyPPO19 PPO protein (SEQ ID NO: 1) (protein)
chain: B1 chain with I360L
modifications: Synthetic_PPO of Thermosynechococcus elongatus PKUAC-SCTE542 (comprising GenBank No. CP032152.1)
B4: CyPPO19 L327T + F360V: variant of CyPPO19 PPO protein (SEQ ID NO: 1) (protein)
chain: B1 chain with I360V
modifications: Synthetic_PPO of Thermosynechococcus elongatus PKUAC-SCTE542 (comprising GenBank No. CP032152.1)
B5: CyPPO19 I408R + F360L: variant of CyPPO19 PPO protein (SEQ ID NO: 1) (protein)
chain: B1 chain with T327L, I360L, I408R
modifications: Synthetic_PPO of Thermosynechococcus elongatus PKUAC-SCTE542 (comprising GenBank No. CP032152.1)
B6: CyPPO19 I408W + F360I: variant of CyPPO19 PPO protein (SEQ ID NO: 1) (protein)
chain: B1 chain with T327L, I408W
modifications: Synthetic_PPO of Thermosynechococcus elongatus PKUAC-SCTE542 (comprising GenBank No. CP032152.1)
B7: CyPPO19 L327T + F360M: variant of CyPPO19 PPO protein (SEQ ID NO: 1) (protein)
chain: B1 chain with I360M
modifications: Synthetic_PPO of Thermosynechococcus elongatus PKUAC-SCTE542 (comprising GenBank No. CP032152.1)
B8: CyPPO19 I408W + F360T: variant of CyPPO19 PPO protein (SEQ ID NO: 1) (protein)
chain: B1 chain with T327L, I360T, I408W
modifications: Synthetic_PPO of Thermosynechococcus elongatus PKUAC-SCTE542 (comprising GenBank No. CP032152.1)
B9: CyPPO19 L327T + F360T: variant of CyPPO19 PPO protein (SEQ ID NO: 1) (protein)
chain: B1 chain with I360T
modifications: Synthetic_PPO of Thermosynechococcus elongatus PKUAC-SCTE542 (comprising GenBank No. CP032152.1)
B10: CyPPO19 I408W + F360V: variant of CyPPO19 PPO protein (SEQ ID NO: 1) (protein)
chain: B1 chain with T327L, I360V, I408W
modifications: Synthetic_PPO of Thermosynechococcus elongatus PKUAC-SCTE542 (comprising GenBank No. CP032152.1)

Tested on: PPO-deficient BT3 E. coli (ΔPPO)
Test: PPO-inhibiting herbicide tolerance test of PPO variants in E. coli (growth on herbicide-containing LB agar)
Format: cell-based
Settings: CyPPO19 variants in BT3 (ΔPPO) E. coli; LB agar with 0 to 2,000 μM herbicide, 37° C., dark, 16-20 hours
Summary of the method: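 Tolerance was scored against wild-type enzyme: '−' for equal growth, one '+' per 10-fold gain, up to '+++++'. ΔPPO BT3 cells carrying variant plasmids, spotted as a 10-fold dilution series from OD600=0.5, grew 16-20 h at 37° C. in the dark on ampicillin LB agar containing 0 to 2,000 μM herbicide.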

Molecule | tolerance level relative to wild type, Carfentrazone | tolerance level relative to wild type, Flumioxazin | tolerance level relative to wild type, Fomesafen | tolerance level relative to wild type, Oxyfluorfen | tolerance level relative to wild type, Saflufenacil | tolerance level relative to wild type, Sulfentrazone | tolerance level relative to wild type, Tiafenacil
B1 | + (‘+’ per each 10-fold resistance) | ++++ (‘+’ per each 10-fold resistance) | + (‘+’ per each 10-fold resistance) | ++ (‘+’ per each 10-fold resistance) | ++ (‘+’ per each 10-fold resistance) | +++ (‘+’ per each 10-fold resistance) | ++++ (‘+’ per each 10-fold resistance)
B2 | + (‘+’ per each 10-fold resistance) | ++ (‘+’ per each 10-fold resistance) | + (‘+’ per each 10-fold resistance) | + (‘+’ per each 10-fold resistance) | ++ (‘+’ per each 10-fold resistance) | + (‘+’ per each 10-fold resistance) | +++ (‘+’ per each 10-fold resistance)
B3 | + (‘+’ per each 10-fold resistance) | ++++ (‘+’ per each 10-fold resistance) | ++ (‘+’ per each 10-fold resistance) | ++ (‘+’ per each 10-fold resistance) | + (‘+’ per each 10-fold resistance) | ++ (‘+’ per each 10-fold resistance) | ++++ (‘+’ per each 10-fold resistance)
B4 | + (‘+’ per each 10-fold resistance) | ++++ (‘+’ per each 10-fold resistance) | + (‘+’ per each 10-fold resistance) | ++ (‘+’ per each 10-fold resistance) | ++ (‘+’ per each 10-fold resistance) | ++ (‘+’ per each 10-fold resistance) | ++++ (‘+’ per each 10-fold resistance)
B5 | + (‘+’ per each 10-fold resistance) | + (‘+’ per each 10-fold resistance) | + (‘+’ per each 10-fold resistance) | + (‘+’ per each 10-fold resistance) | + (‘+’ per each 10-fold resistance) | + (‘+’ per each 10-fold resistance) | ++ (‘+’ per each 10-fold resistance)
B6 | + (‘+’ per each 10-fold resistance) | +++ (‘+’ per each 10-fold resistance) | +++ (‘+’ per each 10-fold resistance) | ++ (‘+’ per each 10-fold resistance) | +++ (‘+’ per each 10-fold resistance) | +++ (‘+’ per each 10-fold resistance) | ++++ (‘+’ per each 10-fold resistance)
B7 | + (‘+’ per each 10-fold resistance) | +++ (‘+’ per each 10-fold resistance) | + (‘+’ per each 10-fold resistance) | ++ (‘+’ per each 10-fold resistance) | + (‘+’ per each 10-fold resistance) | + (‘+’ per each 10-fold resistance) | +++ (‘+’ per each 10-fold resistance)
B8 | + (‘+’ per each 10-fold resistance) | + (‘+’ per each 10-fold resistance) | + (‘+’ per each 10-fold resistance) | + (‘+’ per each 10-fold resistance) | ++ (‘+’ per each 10-fold resistance) | + (‘+’ per each 10-fold resistance) | ++ (‘+’ per each 10-fold resistance)
B9 | + (‘+’ per each 10-fold resistance) | + (‘+’ per each 10-fold resistance) | + (‘+’ per each 10-fold resistance) | + (‘+’ per each 10-fold resistance) | + (‘+’ per each 10-fold resistance) | + (‘+’ per each 10-fold resistance) | ++ (‘+’ per each 10-fold resistance)
B10 | + (‘+’ per each 10-fold resistance) | ++++ (‘+’ per each 10-fold resistance) | +++ (‘+’ per each 10-fold resistance) | ++ (‘+’ per each 10-fold resistance) | +++ (‘+’ per each 10-fold resistance) | +++ (‘+’ per each 10-fold resistance) | ++++ (‘+’ per each 10-fold resistance)
